Patent US20100330076A1 (RESEARCH DEVELOPMENT FOUNDATION, published 2010)

B1: Fc611 (other)
chain: DKTHTCPPCPAPELLGGPSVFLFPPKPKDTLMISRTPEVTCVVVDVSHEDPEVKFNWYVDGVEVHNAKTKPREEQYNSTYRVVSVLTVLHQDWLNGKEYKCKVSNKALPAPIEKTISKAKVQPREPQVYTLPPSRDELTKNQVSLTCLVKGFYPSDIAVEWVSNGQPENNYKTTPPVLDSDGSFFLYSKLTVDKSRWQQGNVFSCSVIHEALHNHYTQKSLSLSPGK
notes: Aglycosylated Fc fragment (E. coli, pPelBFLAG), assayed on spheroplasts; not shown: C-terminal FLAG tag from pPelBFLAG
B2: Fc601 (other)
chain: DKTHTCPPCPAPELLGGPSVFLFPPKPKDTLMISRTPEVTCVVVDVSHEDPEVKFNWYVDGVEVHNAKTKPREEQYNSTYRVVSVLTVLHQDWLNGKEYKCKVSNKALPAPIEKTISRAKVQPREPQVYTLPPSRDELTKNQVSLTCLVKGFYPSDIAVEWVSNGQPENNYKTTPPVLDSDGSFFLYSKLTVDKSRWQQGNVFSCSVIHEALHNHYTQKSLSLSPGK
notes: Aglycosylated Fc fragment (E. coli, pPelBFLAG), assayed on spheroplasts; also called IgG1-Fc601; not shown: C-terminal FLAG tag from pPelBFLAG
B3: Fc609 (other)
chain: DKTHTCPPCPAPELLGGPSVFLFPPKPKDTLMISRTPEVTCVVVDVSHEDPEVKFNWYVDGVEVHNAKTKPREEQYNSTYRVVSVLTVLHQDWLNGKEYKCKVSNKALPAPIEKTISRAKVQPREPQVYTLPPSRDELTKNQVSLTCLVKGFYPSDIAVEWVSNGQPENNYKTTPPVLDSDGSFFLYSKLTVDKSRWQQGNVFLCSVIHEALHDHYTQKSLSLSPGK
notes: as for B1
B4: Fc610 (other)
chain: DKTHTCPPCPAPELLGGPSVLLFPPKPKDTLMISRTPEVTCVVVDVSHEDPEVKFNWYVDGVEVHNAKTKPREEQYNSTYRVVSVLTVLHQDWLNGKEYKCKVSNKALPAPIEKTISKAKVQPREPQVYTLPPSRDELTKNQVSLTCLVKGFYPSDIAVEWVSNGQPENNYKTTPPVLDSDGSFFLYSKLTVDKSRWQQGNVFSCSVIHEALHNHYTQKSLSLSPGK
notes: as for B1
B5: Fc612 (other)
chain: DKTHTCPPCPAPELLGGPSVFLFPPKPKDTLMISRTPEVTCVVVDVSHEDPEVKFDWYVDGVEVHNAKTKPREEQYNSTYRVVSVLTVLHQDWLNGKEYKCKVSNKALPAPIEKTISKAKVQPREPQVYTLPPSRDELTKNQVSLTCLVKGFYPSDIAVEWVSNGQPENNYKTTPPVLDSDGSFFLYSKLTVDKSRWQQGNVFSCSVIHEALHNHYTQKSLSLSPGK
notes: as for B1
B6: Fc613 (other)
chain: DKTHTCPPCPAPELLGGPSVFLFPPKPKDTLMISRTPEVTCVVVDVSHEDPEVKFNWYVDGVEVHNAKTKPREEQYNSTYRVVSVLTVLHQDWLNGKEYKCKVSNKALPAPIEKTISKAKVQPREPQVYTLPPSRDELTKNQVSLTCLAKGFYPSDIAVEWVSNGQPENNYKTTPPVLDSDGSFFLYSKLTVDKSRWQQGNVFSCSVIHEALHNHYTQKSLSLSPGK
notes: as for B1
B7: Fc614 (other)
chain: DKTHTCPPCPAPELLGGPSVFLFPPKPKDTLMISRTPEVTCVVVDVSHEDPEVKFNWYVDGVEVHDAKTKPREEQYNSTYRVVSVLTVLHQDWLNGKEYKCKVSNKALPAPIEKTISKAKVQPREPQVYTLPPSRDELTKNQVSLTCLVKGFYPSDIAVEWVSNGQPENNYKTTPPVLDSDGSFFLYSKLTVDKSRWQQGNVFSCSVIHEALHSHYTQKSLSLSPGK
notes: as for B1
B8: Fc615 (other)
chain: DKTHTCPPCPAPELLGGPSVFLFPPKPKDTLMISRTPEVTCVVVDVSHEDPEVKFNWYVDGVEVHNAKTKPREEQYNSTYRVVSVLTVLHQDWLNGKEYKCKVSSKALPAPIEKTISKAKVQPREPQVYTLPPSRDELTKNQVSLTCLVKGFYPSDIAVEWVSNGQPENNYKTTPPVLDSDGSFFLYSKLTVDKSRWQQGNVFSCSVIHEALHNHYTQKSLSLSPGK
notes: as for B1
B9: Fc616 (other)
chain: DKTHTCPPCPAPELLGGPSVFLFPPKPKDTLMISRTPEVTCVVVDVSHEDPEVKFNWYVDGVEVHNAKTKPREEQYNSTCRVVSVLTVLHQDWLNGKEYKCKVSNKALPAPIEKTISKAKVQPREPQVYTLPPSRDELTKNQVSLTCLVKGFYPSDIAVEWVSNGQPENNYKTTPPVLDSDGSFFLYSKLTVDKSRWQQGNVFSCSVIHEALHNHYTQKSLSLSPGK
notes: as for B1
B10: Fc617 (other)
chain: DKTHTCPPCPAPELLGGPSVFLFPPKPKDTLMISRTPEVTCVVVDVSHEDPEVKFNWYVDGVEVHNAKTKPREEQYNSTYRVVSVLTVLHQDWLNGKEYKCKVSNKALPAPIEKTISKAKVQPREPQMYTLPPSRDELTKNQVSLTCLVKGFYPSDIAVEWVSNGQPENNYKTTPPVLDSDGSFFLYSKLTVDKSRWQQGNVFSCSVIHEALHNHYTQKSLSLSPGK
notes: as for B1
B11: Fc618 (other)
chain: DKTHTCPPCPAPELLGGPSVFLFPPKPKDTLMISRTPEVTCVVVDVSHEDPEVKFNWYVDGVEVHNAKTKPREEQYNSTYRVVSVLTVLHQDWLNGKEYKCKVSNKALPAPIEKTISKAKGQPREPQVYTLPPSRDELTKNQVSLTCLVKGFYPSDIAVEWVSNGQPENNYKTTPPVLDSDGSFFLYSKLTVDKSRWQQGNVFSCSVIHEALHSHYTQKSLSLSPGK
notes: as for B1
B12: Fc619 (other)
chain: DKTHTCPPCPAPELLGGPSVFLFPPKPKDTLMISRTPEVTCVVVDMSHEDPEVKFNWYVDGVEVHNAKTKPREEQYNSTYRVVSVLTVLHQDWLNGKEYKCKVSNKALPAPIEKTISKAKGQPREPQVYTLPPSRDELTKNQVSLTCLVKGFYPSDIAVEWVSNGQPENNYKTTPPVLDSDGSFFLYSKLTVDKSRWQQGNVFSCSVIHEALHNHYTQKSLSLSPGK
notes: as for B1
B13: Fc701 (other)
chain: DKTHTCPPCPAPELLGGPSVFLFPPKPKDTLMISRTPEVTCVVVDVSHEDPEVKFNWYVDGVEVHNAKTKPREERYNSTYRVVSVLTVLHQDWLNGKEYKCKVSNKAWPVAYEKTISKAKGQPREPQVYTLPPSRDELTKNQVSLTCLVKGFYPSDIAVEWVSNGQPENNYKTTPPVLDSDGSFFLYSKLTVDKSRWQQGNVFSCSVIHEALHNHYTQKSLSLSPGK
notes: Aglycosylated Fc fragment (E. coli, pPelBFLAG), assayed on spheroplasts; also called IgG1-Fc701; not shown: C-terminal FLAG tag from pPelBFLAG
B14: Fc702 (other)
chain: DKTHTCPPCPAPELLGGPSVFLFPPKPKDTLMISRTPEVTCVVVDVSHEDPEVKFNWYMDGVEVHNAKTKPREEQYNSTYRVVSVLTVLHQDWLNGKEYKCKVSNKAWPEEYEKTISKAKGQPREPQVYTLPPSRDELTKNQVSLTCLVKGFYPSDIAVEWVSNGQPENNYKTTPPVLDSDGSFFLYSKLTVDKSRWQQGNVFSCSVIHEALHNHYTQKSLSLSPGK
notes: as for B1
B15: Fc703 (other)
chain: DKTHTCPPCPAPELLGGPSVFLFPPKPKDTLMISRTPEVTCVVVDVSHEDPEVKFNWYVDGVEVHNAKTKPREEQYNSTYRVVSVLTVLHQDWLNGKEYKCKVSNKAWPEEYEKTISKAKGQPREPQVYTLPPSRDELTKNQVSLTCLVKGFYPSDIAVEWVSNGQPENNYKTTPPVLDSDGSFFLYSKLTVDKSRWQQGNVFSCSVIHEALHNHYTQKSLSLSPGK
notes: as for B1
B16: Fc704 (other)
chain: DKTHTCPPCPAPELLGGPSVFLFPPKPKDTLMISRTPEVTCVVVDVSHEDPEVKFNWYVDGVEVHNAKTKPREEQYNSTYRVVSVLTVLHQDWLNGKEYKCKVSNKAWPEVYEKTISKAKGQPREPQVYTLPPSRDELTKNQVSLTCLVKGFYPSDIAVEWVSNGQPENNYKTTPPVLDSDGSFFLYSKLTVDKSRWQQGNVFSCTVIHEALHNHYTQKSLSLSPGK
notes: as for B1
B17: Fc705 (other)
chain: DKTHTCPPCPAPELLGGPSVFLFPPKPKDTLMISRTPEVTCVVVDVSHEDPEVKFNWYVDGVEVHNAKTKPREEQYNSTYRVVSVLTVLHQDWLNGKEYKCKVSNKAWPEVYEKTISKAKGQPREPQVYTLPPSRDELTKNQVSLTCLVKGFYPSDIAVEWVSNGQPENNYKTTPPVLDSDGSFFLYSKLTVDKSRWQQGNVFSCSVIHEALHNHYTQKSLSLSPGK
notes: as for B1
B18: Fc706 (other)
chain: DKTHTCPPCPAPELLGGPSVFLFPPKPKDTLMISRTPEVTCVVVDVSHEDPEVKFNWYVDGVEVHNAKTKPREEQYNSTYRVVSVLTVLHQDWLNGKEYKCKVSNKAWPIEYEKTISKAKGQPREPQVYTLPPSRDELTKNQVSLTCLVKGFYPSDIAVEWVSNGQPENNYKTTPPVLDSDGSFFLYSKLTVDKSRWQQGNVFSCSVIHEALHNHYTQKSLSLSPGK
notes: as for B1
B19: Fc707 (other)
chain: DKTHTCPPCPAPELLGGPSVFLFPPKPKDTLMISRTPEVTCVVVDVSHEDPEVKFNWYVDGVEVHNAKTKPREEQYNSTYRVVSVLTVLHQDWLNGKEYKCKVSNKAWPEPYEKTISKAKGQPREPQVYTLPPSRDELTKNQVSLTCLVKGFYPSDIAVEWVSNGQPENNYKTTPPVLDSDGSFFLYSKLTVDKSRWQQGNVFSCSVIHEALHNHYTQKSLSLSPGK
notes: as for B1
B20: Fc708 (other)
chain: DKTHTCPPCPAPELLGGPSVFLFPPKPKDTLMISRTPEVTCVVVDVSHEDPEVKFNWYVDGVEVHNAKTKPREEQYNSTYRVVSVLTVLHQDWLNGKEYKCKVSNKAWPASYEKTISKAKGQPREPQVYTLPPSRDELTKNQVSLTCLVKGFYPSDIAVEWVSNGQPENNYKTTPPVLDSDGSFFLYSKLTVDKSRWQQGNVFSCSVIHEALHNHYTQKSLSLSPGK
notes: as for B1
B21: Fc602 (other)
chain: DKTHTCPPCPAPELLGGPSVFLFPPKPKDTLMISRTPEVTCVVVDVSHEDPEVKFNWYVDGVEVHNAKTKPREEQYDSTYRVVSVLTVLHQDWLDGKEYKCKVSNKALPAPIEKTISKANGQPREPQVYTLPPSRDELTKNQVSLTCLVKGFYPSDIAVEWVSNGQPENNYKTTPPVLDSDGSFFLYSKLTVDKSRWQQGNVFSCSVIHEALHNHYTQKSLSLSPGK
notes: as for B1

Target: T1, extracellular domain of recombinant glycosylated FcγRIa/CD64 (R&D Systems) labeled with FITC (human, UniProt P12314 16-292, FITC-labeled; glycosylated)
T1 construct: extracellular domain; it is not restated for the bought reagent; also called FcγRIa-FITC; FcγRI-FITC
T1 sequence (P12314 16-292): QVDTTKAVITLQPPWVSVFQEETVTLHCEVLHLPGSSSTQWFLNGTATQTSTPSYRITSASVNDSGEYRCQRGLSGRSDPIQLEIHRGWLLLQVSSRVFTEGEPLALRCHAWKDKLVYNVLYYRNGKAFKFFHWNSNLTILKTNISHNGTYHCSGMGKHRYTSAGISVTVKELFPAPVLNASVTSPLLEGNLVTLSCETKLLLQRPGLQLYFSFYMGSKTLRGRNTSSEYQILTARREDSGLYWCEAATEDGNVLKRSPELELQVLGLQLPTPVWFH
Assay: flow cytometry of E. coli spheroplasts expressing the Fc fragment, labeled with FcγRIa-FITC

Binding result, binds:
B1, B2, B3, B4, B5, B6, B7, B8, B9, B10, B11, B12, B13, B14, B15, B16, B17, B18, B19, B20

Target: T1, extracellular domain of recombinant …
Assay: flow cytometry of E. coli spheroplasts labeled with FcγRIa-FITC (summary in Example 3)

Binding result, binds:
B21
